T1: PF3D7_0420300 D1 (Plasmodium falciparum, UniProt Q8I1N6 1956-2015)
T1 sequence: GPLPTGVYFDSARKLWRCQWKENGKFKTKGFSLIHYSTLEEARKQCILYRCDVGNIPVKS

B1: CACACA_negctrl_site29 (dsDNA)
DNA 1: TTTTTTTTTTTTTTTTTTTTTTTGCTCAGTGTGGTA
DNA 2: TACCACACTGAGCAAAAAAAAAAAAAAAAAAAAAAA
B2: CACACA_site6811 (dsDNA)
DNA 1: CATATAAAGATATGAACACACAAAAAGAATATTTCC
DNA 2: GGAAATATTCTTTTTGTGTGTTCATATCTTTATATG
B3: CACACA_negctrl_site1508 (dsDNA)
DNA 1: TTTTACTCTTAAAATAATAAAAAATATTCACATTTA
DNA 2: TAAATGTGAATATTTTTTATTATTTTAAGAGTAAAA
B4: CACACA_site2783 (dsDNA)
DNA 1: TATGAAAGAAATAGTACACACATAAACATTTGTAAA
DNA 2: TTTACAAATGTTTATGTGTGTACTATTTCTTTCATA
B5: CACACA_negctrl_site896 (dsDNA)
DNA 1: TGATTAAAAGAGGGAAAAAAAAAAAAAAAAAAAAAA
DNA 2: TTTTTTTTTTTTTTTTTTTTTTCCCTCTTTTAATCA
B6: CACACA_negctrl_site1119 (dsDNA)
DNA 1: ATTTTTTTTTTTTTTTTTTTTTTTTGGAGAAAGAGA
DNA 2: TCTCTTTCTCCAAAAAAAAAAAAAAAAAAAAAAAAT
B7: CACACA_site1373 (dsDNA)
DNA 1: TACAAAATATATATGACACACATAAAAAAAAGTATA
DNA 2: TATACTTTTTTTTATGTGTGTCATATATATTTTGTA
B8: CACACA_negctrl_site412 (dsDNA)
DNA 1: ATAAAAAGGTTTAAAAAAAAAAAAAAAAAAAAAAAA
DNA 2: TTTTTTTTTTTTTTTTTTTTTTTTAAACCTTTTTAT
B9: CACACA_site2206 (dsDNA)
DNA 1: AAAAAAAACACGCGCACACACACACCCACCCACCGA
DNA 2: TCGGTGGGTGGGTGTGTGTGTGCGCGTGTTTTTTTT
B10: CACACA_site4200 (dsDNA)
DNA 1: TGTCCCCCTTTCTATGCACACTTTAAATTATTCAAA
DNA 2: TTTGAATAATTTAAAGTGTGCATAGAAAGGGGGACA
B11: CACACA_negctrl_site146 (dsDNA)
DNA 1: TTTATAAAAAATTTTTTTTTTTTTTTTTAAATATAT
DNA 2: ATATATTTAAAAAAAAAAAAAAAAATTTTTTATAAA
B12: CACACA_negctrl_site1559 (dsDNA)
DNA 1: ATATTAAAATGAAAATATAAAAAAAAAAAAAAAAAA
DNA 2: TTTTTTTTTTTTTTTTTTATATTTTCATTTTAATAT
B13: CACACA_site76 (dsDNA)
DNA 1: GGCAGCAATTTAGTTACACACATATATAGGTATACA
DNA 2: TGTATACCTATATATGTGTGTAACTAAATTGCTGCC
B14: CACACA_negctrl_site1405 (dsDNA)
DNA 1: ATGAAAAAAAAAAAAAAAAAAAAAAAAAAAAAAAAA
DNA 2: TTTTTTTTTTTTTTTTTTTTTTTTTTTTTTTTTCAT
B15: CACACA_site4699 (dsDNA)
DNA 1: AAACAGAAGACATATACACACATACAAAAAAGTGCA
DNA 2: TGCACTTTTTTGTATGTGTGTATATGTCTTCTGTTT
B16: CACACA_site6075 (dsDNA)
DNA 1: AATAAATAAGCACATACACACATACATACATACATA
DNA 2: TATGTATGTATGTATGTGTGTATGTGCTTATTTATT
B17: CACACA_site5088 (dsDNA)
DNA 1: CCAACATAGAGGGGCACACACATATATACCTAAAAA
DNA 2: TTTTTAGGTATATATGTGTGTGCCCCTCTATGTTGG
B18: CACACA_site9117 (dsDNA)
DNA 1: AAAAAAAAAAAAAAAACACACATACACCCCCACCCA
DNA 2: TGGGTGGGGGTGTATGTGTGTTTTTTTTTTTTTTTT
B19: CACACA_site9348 (dsDNA)
DNA 1: TATATTTTGTTCTTTCCACACACAAATACATATATT
DNA 2: AATATATGTATTTGTGTGTGGAAAGAACAAAATATA
B20: CACACA_site8811 (dsDNA)
DNA 1: TTAAAAATATATATAACACACACATAATATATATAT
DNA 2: ATATATATATTATGTGTGTGTTATATATATTTTTAA
B21: CACACA_site6737 (dsDNA)
DNA 1: TAAAAAATAAAATACACACACATATTTATATTTATA
DNA 2: TATAAATATAAATATGTGTGTGTATTTTATTTTTTA
B22: CACACA_site4181 (dsDNA)
DNA 1: GGATATATTTTATGTACACACACATATAAGGGATTA
DNA 2: TAATCCCTTATATGTGTGTGTACATAAAATATATCC
B23: CACACA_site5336 (dsDNA)
DNA 1: TATAATAATAAAAACACACACGTTGATTGTATTAGC
DNA 2: GCTAATACAATCAACGTGTGTGTTTTTATTATTATA
B24: CACACA_negctrl_site1638 (dsDNA)
DNA 1: ACATGTATACTTTTTACGAAAAAAAAAAAAAAAAAA
DNA 2: TTTTTTTTTTTTTTTTTTCGTAAAAAGTATACATGT
B25: CACACA_site8720 (dsDNA)
DNA 1: TATGTATTAAATTTTACACACATGATTCTCTATATG
DNA 2: CATATAGAGAATCATGTGTGTAAAATTTAATACATA
B26: CACACA_site6664 (dsDNA)
DNA 1: CATATATTTTGAAACACACACATATAAAATATACAT
DNA 2: ATGTATATTTTATATGTGTGTGTTTCAAAATATATG
B27: CACACA_site632 (dsDNA)
DNA 1: ATATAATATTAGTGCACACACAAAAATGTACTAAAC
DNA 2: GTTTAGTACATTTTTGTGTGTGCACTAATATTATAT
B28: CACACA_site2584 (dsDNA)
DNA 1: ATTGCTTTTCTTTTTGCACACTTATGCATATATATA
DNA 2: TATATATATGCATAAGTGTGCAAAAAGAAAAGCAAT
B29: CACACA_site8696 (dsDNA)
DNA 1: TGGGAAAAAATATATGCACACCCCCCAAAAAAAAAA
DNA 2: TTTTTTTTTTGGGGGGTGTGCATATATTTTTTCCCA
B30: CACACA_negctrl_site1541 (dsDNA)
DNA 1: TGCTAATAATTATTTGTTTAGCAACAAAAAAAAAAA
DNA 2: TTTTTTTTTTTGTTGCTAAACAAATAATTATTAGCA
B31: CACACA_site4569 (dsDNA)
DNA 1: TTGCCCATTTCATTAACACACAAATGTTTATATTCT
DNA 2: AGAATATAAACATTTGTGTGTTAATGAAATGGGCAA
B32: CACACA_site8226 (dsDNA)
DNA 1: TGATAACCTAATAATACACACACATGAATATATATA
DNA 2: TATATATATTCATGTGTGTGTATTATTAGGTTATCA

These binders were tested against T1, PF3D7_0420300 D1 (assay: gcPBM; about 25 ug protein; PBS, 1% milk, 0.2 mg/ml BSA, salmon testes DNA, 0.03% Triton X-100). Details: tags: N-terminal GST (pGEX-4T-1), kept; label: surface-attached array probe.

Binder	binding signal
B1	8.55 ln median PBM intensity, better of two orientations
B2	9.72 ln median PBM intensity, better of two orientations
B3	8.65 ln median PBM intensity, better of two orientations
B4	9.73 ln median PBM intensity, better of two orientations
B5	8.33 ln median PBM intensity, better of two orientations
B6	8.63 ln median PBM intensity, better of two orientations
B7	9.69 ln median PBM intensity, better of two orientations
B8	8.38 ln median PBM intensity, better of two orientations
B9	10.7 ln median PBM intensity, better of two orientations
B10	9.68 ln median PBM intensity, better of two orientations
B11	8.66 ln median PBM intensity, better of two orientations
B12	8.43 ln median PBM intensity, better of two orientations
B13	9.67 ln median PBM intensity, better of two orientations
B14	8.53 ln median PBM intensity, better of two orientations
B15	9.75 ln median PBM intensity, better of two orientations
B16	9.71 ln median PBM intensity, better of two orientations

Binder	binding signal
B17	9.64 ln median PBM intensity, better of two orientations
B18	10.7 ln median PBM intensity, better of two orientations
B19	9.82 ln median PBM intensity, better of two orientations
B20	9.8 ln median PBM intensity, better of two orientations
B21	9.78 ln median PBM intensity, better of two orientations
B22	9.74 ln median PBM intensity, better of two orientations
B23	9.66 ln median PBM intensity, better of two orientations
B24	8.58 ln median PBM intensity, better of two orientations
B25	9.65 ln median PBM intensity, better of two orientations
B26	9.81 ln median PBM intensity, better of two orientations
B27	9.79 ln median PBM intensity, better of two orientations
B28	9.72 ln median PBM intensity, better of two orientations
B29	10.7 ln median PBM intensity, better of two orientations
B30	8.69 ln median PBM intensity, better of two orientations
B31	9.7 ln median PBM intensity, better of two orientations
B32	9.76 ln median PBM intensity, better of two orientations
